In US6821728B1, “Screening system” (priority 1998, dated 2004):

Columns and labels:
mutated p53 R273H = target: T1, mutated p53 R273H (Homo sapiens, UniProt P04637, R273H); assay: transactivation experiments in yeast strain YDE4xp53 (LacZ expression, beta-galactosidase); type: cell-based; conditions: peptide expressed from the pESBA-ADH or pESBA-ACT vector in yeast
T1 construct: expressed in transfected cells; host or cells: Saccharomyces cerevisiae strain YDE4xp53 (derivative of JPY9)
Text: The agonistic action of the inventive screening system has been shown for the tumor suppressor gene p53. The tumor suppressor gene p53 is mutated in more than 50% of all human cancers which results in the inability to properly bind to the p53 binding site sin target genes responsible to induce cell cycle arrest or apoptosis. The four most commonly found mutations occur in the DNA binding domain of p53 and lead to a single amino acid substitution. […] This opens the possibility to use the peptide libraries according to the present invention to screen for peptides which restore the mutated p53 to wild type activity or to use this system to screen for agonistic actions of peptides in general. […]
Yeast strain YDE4xp53 was transformed with the conventional lithium acetate method (Methods in Yeast Genetics, a Cold Spring Harbor Laboratory Course Manual, Cold Spring Harbor Laboratory Press, 1994) with wild type and mutated p53 expression vectors. Transactivation potential of the different p53 molecules was determined by measurement of the LacZ expression on X-gal plates and liquid beta-galactosidase assays as described (Escher and Schaffner, Gene Activation at a Distance and Telomeric Silencing . . . , Mol. Gen. Genet. (1997) 256; 456-461). […]

mutated p53 (p53 R273H) = mutated p53 (p53 R273H) (Homo sapiens, UniProt P04637, R273H); conditions: synthetic peptide fused to the Drosophila Antennapedia internalisation domain (17 amino acids); cited from earlier work
[1] = target: T2, interaction between GAL4 and GAL11P (Saccharomyces cerevisiae, UniProt P19659, N342I); assay: inhibition of GAL4(1-100)-GAL11P interaction and reporter gene (LacZ/URA3) activation in yeast; type: cell-based; conditions: expressed from a high-copy plasmid (2 μm) in yeast, vector pESBA-ADH1
T2 construct: expressed in transfected cells; host or cells: Saccharomyces cerevisiae, JPY9 derivative (gal4Δ11) with integrated pESBA-17mer-URA3
T2 sequence (P19659 whole entry N342I, the tested form may be a part): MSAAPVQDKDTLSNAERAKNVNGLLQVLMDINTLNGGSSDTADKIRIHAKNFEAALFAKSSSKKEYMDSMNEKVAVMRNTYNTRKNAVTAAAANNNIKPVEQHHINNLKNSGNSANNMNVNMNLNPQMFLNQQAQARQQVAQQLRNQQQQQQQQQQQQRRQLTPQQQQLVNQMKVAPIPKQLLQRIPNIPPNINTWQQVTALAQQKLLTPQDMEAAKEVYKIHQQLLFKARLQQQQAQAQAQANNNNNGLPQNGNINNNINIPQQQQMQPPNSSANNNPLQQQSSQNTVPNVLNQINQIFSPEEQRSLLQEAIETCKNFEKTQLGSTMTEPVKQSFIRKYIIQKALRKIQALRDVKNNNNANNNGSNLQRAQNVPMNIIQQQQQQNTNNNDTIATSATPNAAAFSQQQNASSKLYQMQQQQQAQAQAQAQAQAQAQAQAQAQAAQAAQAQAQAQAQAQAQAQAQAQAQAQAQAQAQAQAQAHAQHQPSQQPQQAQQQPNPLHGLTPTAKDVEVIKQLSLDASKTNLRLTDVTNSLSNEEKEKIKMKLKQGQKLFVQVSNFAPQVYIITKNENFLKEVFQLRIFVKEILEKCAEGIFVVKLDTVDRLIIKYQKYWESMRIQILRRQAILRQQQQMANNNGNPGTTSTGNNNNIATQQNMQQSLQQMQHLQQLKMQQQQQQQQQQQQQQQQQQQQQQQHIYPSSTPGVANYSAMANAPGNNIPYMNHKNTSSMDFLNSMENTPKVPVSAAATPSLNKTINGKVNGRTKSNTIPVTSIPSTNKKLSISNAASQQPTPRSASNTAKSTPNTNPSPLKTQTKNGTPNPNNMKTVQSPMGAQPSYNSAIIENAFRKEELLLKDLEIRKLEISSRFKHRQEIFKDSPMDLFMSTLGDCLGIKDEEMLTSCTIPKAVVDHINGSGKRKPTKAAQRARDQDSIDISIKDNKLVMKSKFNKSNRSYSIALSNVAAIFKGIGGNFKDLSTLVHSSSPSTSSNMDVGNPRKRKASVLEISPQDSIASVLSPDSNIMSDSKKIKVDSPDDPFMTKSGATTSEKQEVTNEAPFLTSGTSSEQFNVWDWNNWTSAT
Text: To test the antagonistic action of short protein fragments or peptides in yeast, it was checked whether high production of a peptide could inhibit a defined molecular interaction.
The yeast strain used in these experiments is a derivative of JPY9 (MATα, ura3-52, his3Δ200, leu2Δ1, trp1Δ63, lys2Δ385, gal4Δ11) (A. Barberis et al., Cell, Vol. 81, 359-368) in which the reporter construct pESBA-17mer-URA3 was integrated at the his3 locus. Integration through homologous recombination was piloted by linearisation of the reporter plasmid at the XhoI site prior to yeast transformation. Expression of the URA3 gene was exploited to select for stable integrants on ura-media. […] Upon selection for integration of the reporter construct, this plasmid was readily cured from yeast cells by negative selection for URA3 expression on media containing 5-FOA (ref. Guide to Yeast Genetics and Molecular Biology)
Activation of the divergent LacZ and URA3 reporter genes in the yeast strain described above was induced by co-expression of the DNA-binding domain of GAL4 (amino acid residues 1-100) and GAL11P. GAL4(1-100) was expressed from the plasmid pRJR217 (Y. Wu et al., Quantification of Putative Activator- Target Affinities . . . , EMBO J. 15, 3951-3963, 1996), while GALllP was expressed from pSO28 (A. Barberis et. al., Cell Vol. 81, 359-368). […]

22mer peptide 46: 22 amino acid long peptide stemming from the carboxy-terminal part of p53 (361-382) (GSRAHSSHLKSKKGQSTSRHKK; UniProt P04637 361-382, looked up, fragment)
reactivation of mutated p53 R273H in transactivation experiments (mutated p53 R273H): sufficient to partially reactivate mutated p53 R273H
restoration of DNA binding activity of the mutated p53 (mutated p53 (p53 R273H)): can restore DNA binding activity of the mutated p53

short protein fragment: peptide comprising the GAL4 residues 58-97, known to contain the GAL11P-interacting sequence, overexpressed from vector pESBA-ADH1
inhibition of GAL4-GAL11P protein-protein interaction and its effect on gene expression [1]: could be specifically inhibited
